Reference: publication PMC9569990 (International Journal of Molecular Sciences, 2022)

What was measured:
Test in all cases: SPR; cytokine immobilised on ProteOn GLH sensor chip by amine coupling (9,000-14,000 RU); S100P (wild type or mutant) as analyte, 62 nM-16 µM; 25 °C; 10 mM HEPES, 150 mM NaCl, 1 mM CaCl2, 0.05% TWEEN 20, pH 7.4; heterogeneous ligand model (two ligand populations), one-site model for IL-13; values averaged over analyte concentrations (n = 3-5)
Details in all cases: both partners purified
Thrombopoietin = molecular target: T1, Thrombopoietin (human, UniProt P40225 22-353)
T1 construct: Thrombopoietin, human, UniProt P40225; see the manufacturer's catalogue number; also called THPO; source: bought: SCI-Store (Russia) (source CHO)

Interleukin-31 = molecular target: T2, Interleukin-31 (human, UniProt Q6EBC2 24-164)
T2 construct: Interleukin-31, human, UniProt Q6EBC2; see the manufacturer's catalogue number; also called IL-31; source: bought: PeproTech (source E. coli)
T2 sequence (looked up): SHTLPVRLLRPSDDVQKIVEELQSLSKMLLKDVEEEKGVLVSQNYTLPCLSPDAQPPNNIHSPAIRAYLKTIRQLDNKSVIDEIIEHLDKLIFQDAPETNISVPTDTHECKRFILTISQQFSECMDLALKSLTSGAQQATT

Somatotropin = molecular target: T3, Somatotropin (human, UniProt P01241 27-217)
T3 construct: Somatotropin (growth hormone), human, UniProt P01241; see the manufacturer's catalogue number; also called GH; growth hormone; source: bought: PeproTech (source E. coli)

Growth hormone variant = molecular target: T4, Growth hormone variant (human, UniProt P01242 27-217)
T4 construct: Growth hormone variant, human, UniProt P01242; see the manufacturer's catalogue number; also called GH-V; source: bought: R&D Systems (source E. coli)

Interleukin-22 = molecular target: T5, Interleukin-22 (human, UniProt Q9GZX6 34-179)
T5 construct: Interleukin-22, human, UniProt Q9GZX6; see the manufacturer's catalogue number; also called IL-22; source: bought: PeproTech (source E. coli)
T5 sequence (looked up): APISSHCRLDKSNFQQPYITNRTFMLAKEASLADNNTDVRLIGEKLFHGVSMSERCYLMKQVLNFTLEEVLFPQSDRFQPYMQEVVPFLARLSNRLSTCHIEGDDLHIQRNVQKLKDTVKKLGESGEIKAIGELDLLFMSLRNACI

Interleukin-5 = molecular target: T6, Interleukin-5 (human, UniProt P05113 20-134)
T6 construct: Interleukin-5, human, UniProt P05113; also called IL-5; source: bought: PeproTech (source E. coli)

Interleukin-15 = molecular target: T7, Interleukin-15 (human, UniProt P40933 49-162)
T7 construct: Interleukin-15, human, UniProt P40933; see the manufacturer's catalogue number; also called IL-15; source: bought: PeproTech (source E. coli)
T7 sequence (P40933 49-162): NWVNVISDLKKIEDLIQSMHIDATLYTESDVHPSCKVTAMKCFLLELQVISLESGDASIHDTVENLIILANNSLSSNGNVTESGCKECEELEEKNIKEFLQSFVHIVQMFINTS

T4 sequence (P01242 27-217, change not shown): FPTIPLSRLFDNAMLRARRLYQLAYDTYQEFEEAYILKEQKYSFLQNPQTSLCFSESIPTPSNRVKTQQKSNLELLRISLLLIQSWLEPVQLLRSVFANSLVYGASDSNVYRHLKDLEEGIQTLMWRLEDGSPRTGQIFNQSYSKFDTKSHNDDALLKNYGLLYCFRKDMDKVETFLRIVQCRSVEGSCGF
T6 sequence (P05113 20-134): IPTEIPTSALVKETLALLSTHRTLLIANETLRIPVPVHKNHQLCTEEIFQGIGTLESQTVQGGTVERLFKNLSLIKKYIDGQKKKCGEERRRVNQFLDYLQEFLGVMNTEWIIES
T3 sequence (P01241 27-217): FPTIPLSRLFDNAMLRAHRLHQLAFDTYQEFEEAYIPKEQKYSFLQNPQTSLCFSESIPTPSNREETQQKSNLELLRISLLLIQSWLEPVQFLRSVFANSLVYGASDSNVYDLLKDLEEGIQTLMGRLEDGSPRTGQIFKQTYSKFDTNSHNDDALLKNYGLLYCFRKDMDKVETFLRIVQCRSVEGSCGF
T1 sequence (P40225 22-353): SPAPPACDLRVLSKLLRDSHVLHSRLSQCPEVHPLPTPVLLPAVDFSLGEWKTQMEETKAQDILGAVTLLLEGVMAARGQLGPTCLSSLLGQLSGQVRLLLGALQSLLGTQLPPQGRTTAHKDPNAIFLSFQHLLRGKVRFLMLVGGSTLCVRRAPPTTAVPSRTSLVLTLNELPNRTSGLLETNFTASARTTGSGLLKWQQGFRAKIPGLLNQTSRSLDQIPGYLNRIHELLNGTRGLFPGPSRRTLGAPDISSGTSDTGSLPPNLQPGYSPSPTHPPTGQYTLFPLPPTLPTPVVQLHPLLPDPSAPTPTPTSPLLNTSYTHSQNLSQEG

- Kd1 (heterogeneous ligand model, population 1) (Thrombopoietin): 834 pM
- Kd2 (heterogeneous ligand model, population 2) (Thrombopoietin): 41.2 nM
- kd1 (heterogeneous ligand model, population 1) (Thrombopoietin): 0.000409 s⁻¹
- kd2 (heterogeneous ligand model, population 2) (Thrombopoietin): 0.00829 s⁻¹
- Kd1 (heterogeneous ligand model, population 1) (Interleukin-31): 25.2 nM
- Kd2 (heterogeneous ligand model, population 2) (Interleukin-31): 202 nM
- kd1 (heterogeneous ligand model, population 1) (Interleukin-31): 0.00023 s⁻¹
- kd2 (heterogeneous ligand model, population 2) (Interleukin-31): 0.0583 s⁻¹
- Kd1 (heterogeneous ligand model, population 1) (Somatotropin): 42.9 nM
- Kd2 (heterogeneous ligand model, population 2) (Somatotropin): 266 nM
- kd1 (heterogeneous ligand model, population 1) (Somatotropin): 0.000669 s⁻¹
- kd2 (heterogeneous ligand model, population 2) (Somatotropin): 0.0142 s⁻¹
- Kd1 (heterogeneous ligand model, population 1) (Growth hormone variant): 1.04 µM
- Kd2 (heterogeneous ligand model, population 2) (Growth hormone variant): 2.73 µM
- kd1 (heterogeneous ligand model, population 1) (Growth hormone variant): 0.00177 s⁻¹
- kd2 (heterogeneous ligand model, population 2) (Growth hormone variant): 0.0181 s⁻¹
- Kd1 (heterogeneous ligand model, population 1) (Interleukin-22): 482 nM
- Kd2 (heterogeneous ligand model, population 2) (Interleukin-22): 780 nM
- kd1 (heterogeneous ligand model, population 1) (Interleukin-22): 0.00764 s⁻¹
- kd2 (heterogeneous ligand model, population 2) (Interleukin-22): 0.00276 s⁻¹
- Kd1 (heterogeneous ligand model, population 1) (Interleukin-5): 3.66 nM
- Kd2 (heterogeneous ligand model, population 2) (Interleukin-5): 833 nM
- kd1 (heterogeneous ligand model, population 1) (Interleukin-5): 0.000612 s⁻¹
- kd2 (heterogeneous ligand model, population 2) (Interleukin-5): 0.00712 s⁻¹
- Kd1 (heterogeneous ligand model, population 1) (Interleukin-15): 102 nM
- Kd2 (heterogeneous ligand model, population 2) (Interleukin-15): 980 nM
- kd1 (heterogeneous ligand model, population 1) (Interleukin-15): 0.00109 s⁻¹
- kd2 (heterogeneous ligand model, population 2) (Interleukin-15): 0.0272 s⁻¹
B1: Human S100P protein (recombinant, Ca^2+-loaded) (natural protein)
chain: MTELETAMGMIIDVFSRYSGSEGSTQTLTKGELKVLMEKELPGFLQSGKDKDAVDKLLKDLDANGDAQVDFSEFIVFVAAITSACHKYFEKAGLK
notes: S100P protein, human, recombinant; probably the whole 95-residue protein (surmise); also called wild-type S100P; WT S100P; source: E. coli, prepared as previously described [28]
